Data on 6 substances can be found in the supplement of paper PMC5998384.

Series [1] deals with HeLa Kyoto. Briefly: solubility in G1/S (NP-40 vs SDS abundance) (log2 ratio); higher = more soluble. Conditions: cell cycle stage: G1/S.
The subject of series [2] is HeLa Kyoto. Briefly: melting temperature (median over replicates), in situ; higher = more thermally stable.
The test system of series [3] is HeLa Kyoto. The series can be described thus: solubility change mitosis vs G1/S (difference of NP-40 vs SDS log2 ratios) (log2 ratio difference); higher = more soluble in mitosis.
The test system of series [4] is HeLa Kyoto. Briefly: thermal stability score vs G1/S (z-score of summed log2 fold changes over temperatures); higher = more thermally stable than in G1/S.
The mark [5] stands for this setting: cell cycle stage: early G1 (4.5 h after nocodazole release).
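Wherever melting temperature (median over replicates), in situ is given: HeLa Kyoto cells synchronized by double thymidine or nocodazole block, proteins quantified by TMT10plex mass spectrometry, three independent biological replicates.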
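Wherever solubility change mitosis vs G1/S (difference of NP-40 vs SDS log2 ratios) is given: synchronized HeLa Kyoto cells (double thymidine block for G1/S, nocodazole release for mitosis), protein amounts in NP-40 versus SDS lysates quantified by mass spectrometry, three biological replicates.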
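Wherever solubility in G1/S (NP-40 vs SDS abundance) is given: HeLa Kyoto cells arrested at G1/S by double thymidine block, proteins quantified by TMT10plex mass spectrometry in mild NP-40 versus SDS extracts, three biological replicates.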
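Wherever thermal stability score vs G1/S (z-score of summed log2 fold changes over temperatures) is given: synchronized HeLa Kyoto cells, proteins quantified by TMT10plex mass spectrometry, three biological replicates, mitosis taken 0.5 h after nocodazole release, G1/S directly after double thymidine block.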

Sequence of NDRG1 (chain, as listed by the source): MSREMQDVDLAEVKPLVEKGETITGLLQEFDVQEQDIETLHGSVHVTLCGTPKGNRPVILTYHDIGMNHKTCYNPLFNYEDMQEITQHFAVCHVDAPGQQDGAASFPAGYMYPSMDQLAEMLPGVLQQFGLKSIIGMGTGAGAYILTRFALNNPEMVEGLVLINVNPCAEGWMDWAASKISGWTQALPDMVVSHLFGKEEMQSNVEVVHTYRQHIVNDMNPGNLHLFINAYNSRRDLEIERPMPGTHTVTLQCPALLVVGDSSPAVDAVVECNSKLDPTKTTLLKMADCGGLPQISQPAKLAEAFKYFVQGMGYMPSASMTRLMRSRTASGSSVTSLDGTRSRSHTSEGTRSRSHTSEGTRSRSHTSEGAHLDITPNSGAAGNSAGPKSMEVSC

Consider “MSDNPPRMEVCPYCKKPFKRLKSHLPYCKMIGPTIPTDQKVYQSKPATLPRAKKMKGPIKDLIKAKGKELETENEERNSKLVVDKPEQTVKTFPLPAVGLERAATTKADKDIKNPIQPSFKMLKNTKPMTTFQEETKAQFYASEKTSPKRELAKDLPKSGESRCNPSEAGASLLVGSIEPSLSNQDRKYSSTLPNDVQTTSGDLKLDKIDPQRQELLVKLLDVPTGDCHISPKNVSDGVKRVRTLLSNERDSKGRDHLSGVPTDVTVTETPEKNTESLILSLKMSSLGKIQVMEKQEKGLTLGVETCGSKGNAEKSMSATEKQERTVMSHGCENFNTRDSVTGKESQGERPHLSLFIPRETTYQFHSVSQSSSQSLASLATTFLQEKKAEAQNHHCVPDVKALMESPEGQLSLEPKSDSQFQASHTGCQSPLCSAQRHTPQSPFTNHAAAAGRKTLRSCMGLEWFPELYPGYLGLGVLPGKPQCWNAMTQKPQLISPQGERLSQVSLLERSSTHIRSLEPPAGLTTSNFSLMRLLGAVQKGWIRCNTTIRKSGFGGITMLFTGYFVLCCSWSFRRLKKLCRPLPWKSTVPPCIGVAKTTGDCRSKTCLD [C17ORF80]”, for which the “solubility in G1/S (log2)” value in the series on HeLa Kyoto [1] is 0.0361. Further, the melting temperature worked out at 54.5 °C with HeLa Kyoto [2] (cell cycle stage: G1/S) and 54 °C in the series on HeLa Kyoto [2] (cell cycle stage: mitosis). Besides, the “solubility change mitosis (log2)” value in the series with HeLa Kyoto [3] is -0.00249. The values for the thermal stability score with HeLa Kyoto [4] (setting [5]) and in the series on HeLa Kyoto [4] (cell cycle stage: mitosis) were -2.69 and -2.84, respectively.
Consider “MPGMVLFGRRWAIASDDLVFPGFFELVVRVLWWIGILTLYLMHRGKLDCAGGALLSSYLIVLMILLAVVICTVSAIMCVSMRGTICNPGPRKSMSKLLYIRLALFFPEMVWASLGAAWVADGVQCDRTVVNGIIATVVVSWIIIAATVVSIIIVFDPLGGKMAPYSSAGPSHLDSHDSSQLLNGLKTAATSVWETRIKLLCCCIGKDDHTRVAFSSTAELFSTYFSDTDLVPSDIAAGLALLHQQQDNIRNNQEPAQVVCHAPGSSQEADLDAELENCHHYMQFAAAAYGWPLYIYRNPLTGLCRIGGDCCRSRTTDYDLVGGDQLNCHFGSILHTTGLQYRDFIHVSFHDKVYELPFLVALDHRKESVVVAVRGTMSLQDVLTDLSAESEVLDVECEVQDRLAHKGISQAARYVYQRLINDGILSQAFSIAPEYRLVIVGHSLGGGAAALLATMLRAAYPQVRCYAFSPPRGLWSKALQEYSQSFIVSLVLGKDVIPRLSVTNLEDLKRRILRVVAHCNKPKYKILLHGLWYELFGGNPNNLPTELDGGDQEVLTQPLLGEQSLLTRWSPAYSFSSDSPLDSSPKYPPLYPPGRIIHLQEEGASGRFGCCSAAHYSAKWSHEAEFSKILIGPKMLTDHMPDILMRALDSVVSDRAACVSCPAQGVSSVDVA [DAGLB]”, for which the “solubility in G1/S (log2)” value in the series on HeLa Kyoto [1] is -0.195. Moreover, the melting temperature in the series on HeLa Kyoto [2] (cell cycle stage: G1/S) came to 54.6 °C; in the series with HeLa Kyoto [2] (cell cycle stage: mitosis) it was 53.1 °C. In addition, the “solubility change mitosis (log2)” value in the series on HeLa Kyoto [3] is -0.129. The results for the thermal stability score in the series on HeLa Kyoto [4] (setting [5]) and in the series on HeLa Kyoto [4] (cell cycle stage: mitosis) were -0.332 and -1.16, respectively.
On to “MDGETAEEQGGPVPPPVAPGGPGLGGAPGGRREPKKYAVTDDYQLSKQVLGLGVNGKVLECFHRRTGQKCALKLLYDSPKARQEVDHHWQASGGPHIVCILDVYENMHHGKRCLLIIMECMEGGELFSRIQERGDQAFTEREAAEIMRDIGTAIQFLHSHNIAHRDVKPENLLYTSKEKDAVLKLTDFGFAKETTQNALQTPCYTPYYVAPEVLGPEKYDKSCDMWSLGVIMYILLCGFPPFYSNTGQAISPGMKRRIRLGQYGFPNPEWSEVSEDAKQLIRLLLKTDPTERLTITQFMNHPWINQSMVVPQTPLHTARVLQEDKDHWDEVKEEMTSALATMRVDYDQVKIKDLKTSNNRLLNKRRKKQAGSSSASQGCNNQ [MAPKAPK3]”, for which, in the series on HeLa Kyoto [1], the “solubility in G1/S (log2)” value was determined as 0.454. The melting temperature in the series with HeLa Kyoto [2] (cell cycle stage: G1/S) was 49.1 °C; with HeLa Kyoto [2] (cell cycle stage: mitosis) it was 51.2 °C. For the same substance, in the series on HeLa Kyoto [3], the “solubility change mitosis (log2)” value is -0.141. Also, the figures for the thermal stability score with HeLa Kyoto [4] (setting [5]) and with HeLa Kyoto [4] (cell cycle stage: mitosis) were 0.292 and 1.45, respectively.
For the substance NDRG1, the “solubility in G1/S (log2)” value in the series on HeLa Kyoto [1] is 0.246. For the same substance, the melting temperature stood at 53.1 °C in the series on HeLa Kyoto [2] (cell cycle stage: G1/S) and 53.6 °C with HeLa Kyoto [2] (cell cycle stage: mitosis). The “solubility change mitosis (log2)” value in the series with HeLa Kyoto [3] is 0.00645. The results for the thermal stability score in the series with HeLa Kyoto [4] (setting [5]) and in the series on HeLa Kyoto [4] (cell cycle stage: mitosis) were 1.68 and -0.0804, respectively.
In the case of “MASSSTVPLGFHYETKYVVLSYLGLLSQEKLQEQHLSSPQGVQLDIASQSLDQEILLKVKTEIEEELKSLDKEISEAFTSTGFDRHTSPVFSPANPESSMEDCLAHLGEKVSQELKEPLHKALQMLLSQPVTYQAFRECTLETTVHASGWNKILVPLVLLRQMLLELTRRGQEPLSALLQFGVTYLEDYSAEYIIQQGGWGTVFSLESEEEEYPGITAEDSNDIYILPSDNSGQVSPPESPTVTTSWQSESLPVSLSASQSWHTESLPVSLGPESWQQIAMDPEEVKSLDSNGAGEKSENNSSNSDIVHVEKEEVPEGMEEAAVASVVLPARELQEALPEAPAPLLPHITATSLLGTREPDTEVITVEKSSPATSLFVELDEEEVKAATTEPTEVEEVVPALEPTETLLSEKEINAREESLVEELSPASEKKPVPPSEGKSRLSPAGEMKPMPLSEGKSILLFGGAAAVAILAVAIGVALALRKK [BCL2L13]”, in the series with HeLa Kyoto [1], the “solubility in G1/S (log2)” value turned out to be 0.337. The melting temperature turned out to be 53.9 °C with HeLa Kyoto [2] (cell cycle stage: G1/S) and 54.1 °C with HeLa Kyoto [2] (cell cycle stage: mitosis). Moreover, the “solubility change mitosis (log2)” value with HeLa Kyoto [3] was -0.255. For the same substance, the thermal stability score is -2.28 in the series with HeLa Kyoto [4] (setting [5]) and -2.76 in the series with HeLa Kyoto [4] (cell cycle stage: mitosis).
Regarding “MAAAVGRLLRASVARHVSAIPWGISATAALRPAACGRTSLTNLLCSGSSQAKLFSTSSSCHAPAVTQHAPYFKGTAVVNGEFKDLSLDDFKGKYLVLFFYPLDFTFVCPTEIVAFSDKANEFHDVNCEVVAVSVDSHFSHLAWINTPRKNGGLGHMNIALLSDLTKQISRDYGVLLEGSGLALRGLFIIDPNGVIKHLSVNDLPVGRSVEETLRLVKAFQYVETHGEVCPANWTPDSPTIKPSPAASKEYFQKVNQ [PRDX3]”, in the series with HeLa Kyoto [1], the “solubility in G1/S (log2)” value was found to be 0.452. Also, the results for the melting temperature with HeLa Kyoto [2] (cell cycle stage: G1/S) and with HeLa Kyoto [2] (cell cycle stage: mitosis) were 58.2 °C and 57.9 °C, respectively. The “solubility change mitosis (log2)” value with HeLa Kyoto [3] was -0.00401. Further, the thermal stability score in the series on HeLa Kyoto [4] (setting [5]) is 0.801; in the series with HeLa Kyoto [4] (cell cycle stage: mitosis), -1.38.
